The DeepSol protein solubility set

Experiment: soluble on expression in E. coli; label from the status in PepcDB or PDB records

Sequence	soluble on expression in E. coli
ESSDHLRLVAWYIPVKNSKRTVVLAHGFAGNKGLMGAWAGMYHELGYNVLVPDSRASGASQGKAVGYGWLERRDDLQWAKTVVHKTATTQIVMSGISMGAAGMTMASGERQLPQIKAYVVDSPFTSADAIISYQAGQLYHLPAFPLVNVTSLITKLRAGYSFKEADAVAQIRKNHLPIMIISGTRDDFVPTSMGKTLYRNAHQPKSLWLVKGAGHTTAITQNYQRYKRHVTAFLEQYVQ	not soluble
ESYAIFSLNAQFDALTINKARKLYRGKTRLLQGQRIELSDWPETSVERTEFYRYLLNKNLAQMNAHWASLSFSGKARPPKVIDQPSIEILLAWMREQPNRIGYAPVDSLPSDAHVLYVV	not soluble
ETEPGHALVIWHDSTNEYYTMQQLTLAYEESRLLFEKAPQGIAMLDPSGEIVMANRSFGDLVGTTPVRLLGRNLEDFGVEEGTMEYVTPVLSDPEAVVHLDRSLETLRGKQKNVAMSFSSMGNVG	not soluble
ETEQSVDLETVSVVGKSRPRATSGLLHTSTASDKIISGDTLRQKAVNLGDALDGVPGIHASQYGGGASAPVIRGQTGRRIKVLNHHGETGDMADFSPDHAIMVDTALSQQVEILR	not soluble
ETISAFSNQVIQRGATGDDVVELQARLQYNGYYNGKIDGVYGWGTYWAVRNFQDQFGLKEVDGLVGAKTKQTLICKSKYYREYVMEQLNKGNTFTHYGKIPLKYQTKPSKAATQKARQQAEARQKQPAEKTTQKPKANANKQQNNTPAKARKQDAVAANMPGGFSNNDIRLLAQAVYGEARGEPYEGQVAIAAVILNRLNSPLFPNSVAGVIFEPLAFTAVADGQIYMQPNETAREAVLDAINGWDPSEEALYYFNPDTATSPWIWGRPQIKRIGKHIFCE	not soluble
EVKGIGEYKILGESIDDAAGEAFDKTAKLMGLDYPGGPLLSKLAEKGTPGRFKFPRPMTNVPGLDMSFSGLKTFTANTIAANGDDEQTRADIAYAFEEAVCATLAIKCKRALEQTGMKRIVIAGGVSANRRLRAELEKLAKKIGGEVYYPRTEFCTDNGAMIAYAGMQRLKNGEVADMSVEARPRWPIDQLTPIA	not soluble
EVKLEESGGGLVQPGGSMKLSCAASGFTFSDAWMDWVRQSPEKGLEWVAEIRSKVNNHAIHYAESVKGRFTVSRDDSKSSVYLQMNSLRAEDTGIYYCSGWSFLYWGQGTLVTVSAAKTTPPSVYPLAPGSAAQTNSMVTLGCLVKGYFPEPVTVTWNSGSLSSGVHTFPAVLQSDLYTLSSSVTVPSSTWPSETVTCNVAHPASSTKVDKKIVPRD	soluble
EVQLLEESGPGLVQPSQSLSITCTVSGFSLTSYGVHWVRQSPGKGLEWLGVIWSGGSTDYNAAFISRLSISKDNSKSQVFFKMNSLQADDTAIYYCARNRGYSYAMDSWGQGTSVTVSSAKTTPPSVYPLAPGSAAQTNSMVTLGCLVKGYFPEPVTVTWNSGSLSSGVHTFPAVLQSDLYTLSSSVTVPSSTWPSETVTCNVAHPASSTKVDKKIVPRDCTS	soluble
EVVPLAFTKAATQPAPGVKPYNALQVAGRDIYIREGCYNCHSQMIRPFRAETERYGHYSVAGESVYDHPFQWGSKRTGPDLARVGGRYSDEWHRIHLLNPRDVVPESNMPAFPWLARNKVDVDATVANMKALRKVGTPYSDEEIAKAPEALANKSELDAVVAYLQGLGLALKNVR	not soluble
FAPLEADHPGRSGLLALLDNPDAYAARALSARMAGRSLDLMYYIWRTDLTGWLLIEELLAAADRGVRVRLLLDDVNVQGFDRAFLALNQHPNVEVRLFNPIRNRGHVLRRTLEMLLGLSRFNRRMHNKAWIADGRLAIVGGRNIGDTYYDAEESGLAMSRDADVMLAGPVVAEVEGLFDSYWNLGLALPILTLWPE	not soluble
FCYSFCKNYANEIKKIITDFIEHNKINFQNEIENAFITSVIIVHTGIDAFSISLLI	not soluble
FDAVPDLIAILDTEYRIVRANRAMAARLGITPEECVGLTCYRVIHGTDEPPSFCPYRQLLKDGIEHTEEVREDSLGGDFILSVLPLHDSKGKIIGCTHFARDIN	not soluble
FDFKAGEEVLARWTDCRYYPAKIEAINKEGTFTVQFYDGVIRCLKRMHIKAMPEDAKGQDWIALVKA	soluble
FEAQKAKANKAVDGGGGSLVPRGSGGGGSERHFVYQFMGECYFTNGTQRIRYVTRYIYNREEYVRYDSDVGEHRAVTELGRPDAEYWNSQPEILERTRAELDTVCRHNYEGPETHTSLRRLEQPNVVISLSRTEALNHHNTLVCSVTDFYPAKIKVRWFRNGQEETVGVSSTQLIRNGDWTFQVLVMLEMTPRRGEVYTCHVEHPSLKSPITVEWKA	soluble
FFETIHPDDRERIRSEIETAGDSGEPNSVEFRFVEPDGTVVWVVGQAVPVTDDEGNLTERVVGIATDITDLKQR	not soluble
FLEVNYYSRVLGMNRVMNVLLPEESDHNPNWTNDSLKDLPVLYLLHGMSGNHFDWQRKSDIERLLRQTKLAVIMPAADLAWYTNTDYGMNYFDAISQELPRKVASLFPQISTKRKKHFVAGMSMGGYGAFKLAFSSSYFSYAASLSGTLISSLNYPGFLDMEKQAYWKGIFGDLDKFSGSKNDIFELAKRQSNTGIELPKLYAWVGQQDFFYGANEKAIPRLRKMGYDVSYETNPGDHEWYYWSKYIENILQWLPINYQAEKRLS	not soluble
FSDIASLQRFIKLNQSDWLFEMLATERFTSYFQPIVSIKDTSQIFGYESLLRGLDEEGNLMLPTPIMELATEAGLIPQLDQIARLSAITEFSRYKVSGHIFINFAPTSLYDPAFCLSSSVEAIDTAEISHDRVVFEVVESDNPQDLTHLKAVLKYYRDAGFLVALDDLGSGYSSLNLLHQLRPDFIKLDMELIRDVHQDLYKASITEKLLEITQKLNIQTVAEGIECIEELNWLRERGANLAQGYLIAKP	not soluble

Sequence	soluble on expression in E. coli
FSDTLEESSPIAAIFDTENLEKISITEGIERGIVDSITGQRLLEAQACTGGIIHPTTGQKLSLQDAVSQGVIDQDMATRLKPAQKAFIGFEGVKGKKKMSAAEAVKEKWLPYEAGQRFLEFQYLTGGLVDPEVHGRISTEEAIRKGFIDGRAAQRLQDTSSYAKILTCPKTKLKISYKDAINRSMVEDITGLRLLEAASVSSKGLPSPYNMSSA	soluble
FTEYGAEYKIEVGILKDVVTLTLDTSGEGLHKRGYRENSGGAPIKETLAAAMVLLSDWNPDIELADPMCGSGTIAIEAALIGKNIAPGLKRRFVSEEWDIIPKDLWSDLRKHARNSINDKEFNILCSDIDGWVIKTARANAKKAGVDKYISFQKLPMQDFSSKRKGGFIITNPPYGERLGEVKEVEKLYKDMGRVFKALDKWSYFIITAHEKFEDCFGRKSNKNRKLYNGKLKCYYYQYFGDRK	not soluble
FTSPAVKRLLGWKQGDEEEKWAEKAVDALVKKLKKKKGAMEELEKALSCPGQPSNCVTIPRSLDGRLQVSHRKGLPHVIYCRVWRWPDLQSHHELKPLECCEFPFGSKQKEVCINPYHYKRVES	soluble
FVKSGWLLRQSTILKRWKKNWFDLWSDGHLIYYDDQTRQSIEDKVHMPVDCINIRTGHECRDIQPPDGKPRDCLLQIVCRDGKTISLCAESTDDCLAWKFTLQDSRT	soluble
GAEPVDEEAPLLMKNQKDFSSYLMGRQSIYKRHIIEDFVRKMLPGISEHKAASINNAVYSNFVREYKMLVKPEVSKKNYSRDVPFPDIELSLLPGAKEILEKSRNANSRVILISNRGHGDLENEINHLGMMHYFDVVSGAEEVTLEKSHLPPSQMPEDLQKRLINSLNGSDEEALRATLSEAAIYAHPDSTTIERIDKKPDSTRLAESLERLSVQPNVPITSYGDQPSDIKQLKSVAEPKSRVLKGVIVNAQRDDVGREIDVDGVPTRVVSKITEL	not soluble
GAMAQKNEDECAVCRDGGELICCDGCPRAFHLACLSPPLREIPSGTWRCSSCLQATVQEVQPRAEE	soluble
GAMAQVPTDPGYFSVLLDVKHFSPEEISVKVVGDHVEVHARHEERPDEHGFIAREFHRRYRLPPGVDPAAVTSALSPEGVLSIQATPASAQASLPSPPAAK	soluble
GAMGSGIPMEACPHIRYAFQNDKLLLQQASVGRLTLVNKTTILLRPMKTTTVDLGLYARPPEGHGLMLWGSTSRPVTSHVGIIDPGYTGELRLILQNQRRYNSTLRPSELKIHLAAFRYATPQMEEDKGPINHPQYPGNVGLDVSLPKDLALFPHQTVSVTLTVPPPSIPHHRPTIFGRSGLAMQGILVKPCRWRRGGVDVSLTNFSDQTVFLNKYRRFCQLVYLHKHHLTSFYSPHSDAGVLGPRSLFRWASCTFEEVPSLAMGDSGLSEALEGRQGRGFGSSGQ	soluble
GAVDLNDDVLDMGTGLRMQLYQCGDPRGRPVLYLHGMLDGMAPLEYLKHDFARRGLRVLAPVRPGYGLSEPVAGVEPGLRAMASHAVELIDRFALDRVAILGHMAGAVTGYVLRAGGDPRLAGMVAVAASGPLLRRAQLSGMARRQRMMAMTARWTPALLPFFVRAGIALIDSEEVGRFMDALYPPGSHERQVVDRLELAALMHAGYRFAAQSGTAGFEADALTMVSPWQRLSDGGTCPVVHLHGALDPVVPAAETARFAASISGASFRRFEDVGQFLIYERPDAVLDAIEAMLPPR	not soluble
GEIEFIESSKDAGFPVINTPSKTKLEPSVFHQVFEGNKEPAVLRSGDPRLKANFEEAIFSKYIGNVNTHVDEYMLEAVDHYAGQLATLDISTEPMKLEDAVYGTEGLEALDLTTSAGYPYVALGIKKRDILSKKTKDLTKLKECMDKYGLNLPMVTYVKDELRSIEKVAKGKSRLIEASSLNDSVAMRQTFGNLYKTFHLNPGVVTGSAVGCDPDLFWSKIPVMLDGHLIAFDYSGYDASLSPVWFACLKMLLEKLGYTHKETNYIDYLCNSHHLYRDKHYFVRGGMPSGCSGTSIFNSMINNIIIRTLMLKVYKGIDLDQFRMIAYGDDVIASYPWPIDASLLAEAGKGYGLIMTPADKGECFNEVTWTNATFLKRYFRADEQYPFLVHPVMPMKDIHESIRWTKDPKNTQDHVRSLCLLAWHNGEHEYEEFIRKIRSVPVGRCLTLPAFSTLRRKWLDSFHHHHHH	soluble
GEPVEFQPKYRDLMLVVDLSGSMQKEDMNLDGEYIDRLSAVKKVLSDFVAKRKGDRLGVVLFGDHAYLQTPLTADRQTVIQQIKQTVIGLVGQRTAIGDGIGLGTKTFVDSDAPQRVMILLSDGSNTAGVLDPIEAAEIAKK	not soluble
GEVRNIVDKTASFVARNGPEFEARIRQNEINNPKFNFLNPNDPYHAYYRHKVSEFKEGKAQEPS	soluble
GFVKEPFFTRLIDLESPFEEEFDKNVRYEIKRAQKESLLFSWGEGVPRFVKFFNAFAQSKGLSLLNEAELSYMGEHLRLTEIRANGEPLVMHSYLLDHSIKRVRLLHSASLFRLSQEKDFRALVGRANRLLHFLDMERFKEEGFKIYDFGGVSHSQDPALLGINRFKEGFGGRE	not soluble
GGDFREYRDLMDTQVVLGFEGRPYHARDFYAAQILSIILGGGMSSRLFQEVREKRGLCYSIYAFHWGFSDIGLFGLHAATGQEKLKELLPVILDELSKVSKNIHTNELQRARAQYRATLTMAQENPSSQANFIARQILLYGREIPLSETIERLELITPARLTDLAGRLFINATPTLAAVGPVGSLMNFDNLTSTL	not soluble
GGGGGGMGSPYEYQPEVKWYHVLWDMRNKQFRQWYLKKKYRDMRIAYKYESHILYQKAGMGFLMAAVFMSIFSSDLAVAVFRWPTEDPNELLKSQVWQKYHNQLNERKEYADKLLQDSNYIHRKNNPGE	soluble
GGSGRPEIWIAQELRRIGDEFNAYYARRV	soluble
